B1: SmN residues 167-196 (domain or fragment)
chain: not shown
notes: source: E. coli BL21, purified (Ni-NTA, TEV cleavage, gel filtration); not shown: His6, N-terminal, cleaved; GST, N-terminal, cleaved
B2: SmN 167-240 4P→4A (domain or fragment)
chain: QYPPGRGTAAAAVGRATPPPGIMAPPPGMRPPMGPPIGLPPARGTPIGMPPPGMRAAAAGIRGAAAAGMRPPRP
B3: SmN 167-240 4P/3P→4G/3G (domain or fragment)
chain: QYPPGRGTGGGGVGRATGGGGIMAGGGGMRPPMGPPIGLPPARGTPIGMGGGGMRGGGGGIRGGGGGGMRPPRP
B4: SmN 167-240 4P/3P→4A/3A (domain or fragment)
chain: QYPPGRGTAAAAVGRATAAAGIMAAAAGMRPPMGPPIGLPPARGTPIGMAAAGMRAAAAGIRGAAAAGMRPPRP
B5: RBM5 OCRE domain (residues 451-511), wild type (domain or fragment, human)
chain: GAMGTKYAVPDTSTYQYDESSGYYYDPTTGLYYDPNSQYYYNSLTQQYLYWDGEKETYVPAAES
notes: tripeptide left by the TEV cleavage; 15N- or 13C,15N-labelled in the NMR experiments; also called RBM5_OCRE WT; source: E. coli BL21, purified (Ni-NTA, TEV cleavage, gel filtration); not shown: His6, N-terminal, cleaved
B6: SmN peptide, residues 219-229 (GMRPPPPGIRG) (peptide)
peptide: GMRPPPPGIRG
notes: source: synthetic peptide (Peptide Specialty Laboratory, Heidelberg)
B7: RBM5 OCRE domain (451-511) Y495A (domain or fragment, human)
chain: GAMGTKYAVPDTSTYQYDESSGYYYDPTTGLYYDPNSQYYYNSLTQQALYWDGEKETYVPAAES
notes: tripeptide left by the TEV cleavage; RBM5, human, OCRE domain, residues 451-511; source: E. coli BL21, purified (Ni-NTA, TEV cleavage, gel filtration); not shown: His6, N-terminal, cleaved
B8: RBM5 OCRE domain (451-511) Y495W (domain or fragment, human)
chain: GAMGTKYAVPDTSTYQYDESSGYYYDPTTGLYYDPNSQYYYNSLTQQWLYWDGEKETYVPAAES
notes: as for B7
B9: RBM5 OCRE domain (451-511) Y495T (domain or fragment, human)
chain: GAMGTKYAVPDTSTYQYDESSGYYYDPTTGLYYDPNSQYYYNSLTQQTLYWDGEKETYVPAAES
notes: as for B7
B10: RBM5 OCRE domain (451-511) Y486A (domain or fragment, human)
chain: GAMGTKYAVPDTSTYQYDESSGYYYDPTTGLYYDPNSQAYYNSLTQQYLYWDGEKETYVPAAES
notes: as for B7
B11: RBM5 OCRE domain (451-511) Y495F (domain or fragment, human)
chain: GAMGTKYAVPDTSTYQYDESSGYYYDPTTGLYYDPNSQYYYNSLTQQFLYWDGEKETYVPAAES
notes: as for B7
B12: RBM5 OCRE domain (451-511) Y454A/D458K (domain or fragment, human)
chain: GAMGTKAAVPKTSTYQYDESSGYYYDPTTGLYYDPNSQYYYNSLTQQYLYWDGEKETYVPAAES
notes: as for B7
B13: RBM5 OCRE domain (451-511) Y488A (domain or fragment, human)
chain: GAMGTKYAVPDTSTYQYDESSGYYYDPTTGLYYDPNSQYYANSLTQQYLYWDGEKETYVPAAES
notes: as for B7
B14: RBM5 OCRE domain (451-511) Y479A (domain or fragment, human)
chain: GAMGTKYAVPDTSTYQYDESSGYYYDPTTGLAYDPNSQYYYNSLTQQYLYWDGEKETYVPAAES
notes: as for B7
B15: RBM5 OCRE domain (451-511) E501K (domain or fragment, human)
chain: GAMGTKYAVPDTSTYQYDESSGYYYDPTTGLYYDPNSQYYYNSLTQQYLYWDGKKETYVPAAES
notes: as for B7

Target: B5
Test: ITC; Sm tail constructs with wild type OCRE; SmN constructs (1 mM) titrated into OCRE (100 μM); ITC200, 24°C, 20 mM sodium phosphate pH 6.5, 50 mM NaCl; duplicates
Details: both partners purified

Binder | Kd
B1 | 195 µM
B2 | 29 µM
B3 | 192 µM
B4 | 103 µM

Target: T1, SmN C-terminal tail, residues 167-240 (complete proline-rich region), wild type (human, UniProt P63162 167-240)
T1 construct: The ITC methods print 168-240 for this construct; also called SmN_167-240 WT; source: E. coli BL21, purified (Ni-NTA, TEV cleavage, gel filtration); not shown: His6, N-terminal, cleaved; GST, N-terminal, cleaved
Test: as above
Details: both partners purified

Binder | Kd
B5 | 41 µM

Target: T2, SmB C-terminal region, residues 167-231, wild type (human, UniProt P14678-2 167-231)
T2 construct: source: E. coli BL21, purified (Ni-NTA, TEV cleavage, gel filtration); not shown: His6, N-terminal, cleaved; GST, N-terminal, cleaved
Test: as above
Details: both partners purified

Binder | Kd
B5 | 21 µM

Target: B5
Test: NMR structure; solution structure; 2 mM ^13C,^15N-labeled OCRE with 14 mM unlabeled SmN 219-229 peptide, 298 K; 109 intermolecular NOE restraints
Details: both partners purified

Binder | binding result
B6 | binds

Target: T1, SmN C-terminal tail, residues 167-240 …
Test: ITC; purified OCRE mutants (2 mM) titrated to wild type SmN (29.5 μM); ITC200, 24°C, 20 mM sodium phosphate pH 6.5, 50 mM NaCl; duplicates
Details: both partners purified

Binder | Kd
B7 | 172 µM
B8 | 35 µM
B9 | 186 µM
B10 | 145 µM
B11 | 87 µM
B12 | 106 µM
B13 | 220 µM
B14 | 111 µM
B15 | 48 µM
